How the values were obtained:
[1] = test system: cynomolgus CD39 expressing CHO cells (CHO-cyCD39); assay: Inhibition of the enzymatic activity of cellular CD39 in CHO-cyCD39; assay type: cell-based, cynomolgus (Macaca fascicularis); conditions: qualitative
Procedure: The inhibition of the CD39 enzymatic activity in CD39-expressing cells by antibodies was evaluated using Cell Titer GIo™ (Promega, reference G7571) that allows assessment of ATP hydrolysis through use of a reagent that generates a luminescent signal proportional to the amount of ATP present. The assay was thus designed to permit assessment of the inhibition of ATP hydrolyzed by CD39 in the cell culture supernatant. Briefly, 5×10^4 Ramos human lymphoma cells, 5×10^3 human CD39−, cynomolgus CD39—and mouse CD39− expressing CHO cells, were incubated 1 hour at 37° C. with anti-CD39 antibodies from 30 μg/ml to 5×10^−4 μg/ml. Cells were then incubated with 20 μM ATP for 1 additional hour at 37° C. Plates were centrifuged for 2 min at 400 g and 50 μl cell supernatant are transferred in a luminescence microplate (white wells). 50 μl CellTiter-Glo™ Reagent (CTG) was added to the supernatant and emitted light was quantified after a 5 min incubation in the dark using a Enspire™ luminometer. Anti-CD39 antibody efficacy was determined by comparing emitted light in presence of antibody with ATP alone (maximal light emission) and ATP together with cells (minimal light emission).

[2] = target: T1, Human CD39-L2 (NTPDase6, ENTPD6) (Homo sapiens, UniProt O75354, K202E); assay: ELISA titration on CD39-L2; assay type: binding
T1 sequence (O75354 1-484 K202E): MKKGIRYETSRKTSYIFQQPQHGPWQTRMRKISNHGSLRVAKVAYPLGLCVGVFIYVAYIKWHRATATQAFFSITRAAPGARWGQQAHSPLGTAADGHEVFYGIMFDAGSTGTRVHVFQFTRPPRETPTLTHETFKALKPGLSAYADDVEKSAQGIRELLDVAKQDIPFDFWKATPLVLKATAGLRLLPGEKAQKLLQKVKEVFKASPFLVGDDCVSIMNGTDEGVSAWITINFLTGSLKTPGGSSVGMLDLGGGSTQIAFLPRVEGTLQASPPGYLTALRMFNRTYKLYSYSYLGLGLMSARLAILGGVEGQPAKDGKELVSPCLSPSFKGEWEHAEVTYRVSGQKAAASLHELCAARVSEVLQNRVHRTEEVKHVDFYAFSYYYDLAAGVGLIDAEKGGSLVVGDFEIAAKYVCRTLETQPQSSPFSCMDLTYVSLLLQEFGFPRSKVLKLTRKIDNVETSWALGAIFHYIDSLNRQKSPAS
Procedure: Antibody I-394 was tested for binding to recombinant human CD39 isoforms (Rec-huCD39 isoforms) having amino acid sequences shown below were coated in 96-well plate in PBS 1X at 500 ng/ml or 1 μg/ml at 4° C. overnight. Wells were washed in TBS Tween® 20 (polysorbate 20), and further saturated 2H at RT in TBS Blocking buffer. Dose range concentration of primary antibody was incubated in TBS blocking buffer for 2 h at RT. Wells were washed in TBS Tween® 20 (polysorbate 20). […] Optical density was measured on Enspire™ at OD=450.

[3] = test system: CHO cells expressing cynomolgus (Macaca fascicularis) CD39; assay: Antibody titration on CHO-cyCD39 by flow cytometry; assay type: binding; conditions: qualitative
Procedure: Antibody I-394 was tested in two repeated experiments for binding to CHO cells expressing human CD39, CHO cells expressing cynomolgus (Macaca fascicularis) CD39, CHO cells expressing murine CD39, and human Ramos lymphoma cells (ATCC™, reference CRL-1596). Cells were incubated with various concentration of unlabeled anti-CD39 antibody from 30 μg/ml to 5×10^−4 μg/ml, for 30 minutes at 4° C. After washes, cells were incubated with Goat anti-mouse H+L labeled secondary antibody for 30 min at 4° C.

[4] = target: T2, CD39 mutants transfected in Hek-293T cells (Homo sapiens, UniProt P49961, E142K/M139A/R138A); assay: Epitope mapping: binding to CD39 mutants by flow cytometry; conditions: mutant 19: R138A, M139A, E142K
T2 construct: expressed in transfected cells; host or cells: HEK293T
T2 sequence (P49961 1-510 R138A/M139A/E142K): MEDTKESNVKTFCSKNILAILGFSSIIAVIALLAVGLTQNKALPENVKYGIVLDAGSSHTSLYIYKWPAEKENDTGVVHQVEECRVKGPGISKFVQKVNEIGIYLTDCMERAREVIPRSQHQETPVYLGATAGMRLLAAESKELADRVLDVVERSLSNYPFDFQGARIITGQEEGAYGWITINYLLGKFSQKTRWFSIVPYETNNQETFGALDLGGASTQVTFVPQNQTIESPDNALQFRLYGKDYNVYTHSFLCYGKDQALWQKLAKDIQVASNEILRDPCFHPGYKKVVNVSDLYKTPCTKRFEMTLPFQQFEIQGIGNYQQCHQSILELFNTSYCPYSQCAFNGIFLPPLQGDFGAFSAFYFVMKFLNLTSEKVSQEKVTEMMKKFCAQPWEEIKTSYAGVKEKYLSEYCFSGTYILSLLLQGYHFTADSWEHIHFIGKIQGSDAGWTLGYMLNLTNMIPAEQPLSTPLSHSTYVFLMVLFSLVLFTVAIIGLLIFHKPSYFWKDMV
Procedure: CD39 mutants were generated by PCR. The sequences amplified were run on agarose gel and purified using the Macherey Nagel PCR Clean-Up Gel Extraction kit (reference 740609). The purified PCR products generated for each mutant were then ligated into an expression vector, with the ClonTech InFusion system. The vectors containing the mutated sequences were prepared as Miniprep and sequenced. After sequencing, the vectors containing the mutated sequences were prepared as Midiprep using the Promega PureYield™ Plasmid Midiprep System. HEK293T cells were grown in DMEM medium (Invitrogen), transfected with vectors using Invitrogen's Lipofectamine 2000 and incubated at 37° C. in a CO2 incubator for 48 hours prior to testing for transgene expression. The targeted amino acid mutations in the table 1 below are shown using numbering of SEQ ID NO: 1.
In order to define the epitopes of anti-CD39 antibodies, we designed CD39 mutants defined by substitutions of amino acids exposed at the molecular surface over the surface of CD39.
Dose-ranges of I-394 (10-2.5-0.625-0.1563-0.0391-0.0098-0.0024-0.0006 μg/ml) are tested on the 20 generated mutants by flow cytometry. […] Mutant 5 contains amino acid substitutions at residues Q96, N99, E143 and R147. […]

binding to cells expressing mutant 19 of CD39 [4]: complete loss of binding
Substance: I-394: anti-CD39 antibody, VH SEQ ID NO: 6, VL SEQ ID NO: 7, human IgG1 Fc with L234A/L235E/G237A/A330S/P331S
blocking CD39 enzymatic activity in CHO-cyCD39 [1]: blocks CD39 enzymatic activity
binding to CD39-L2 in ELISA [2]: not to any of the isoforms CD39-L1, -L2, -L3 or -L4
binding to cells expressing cynomolgus CD39 (CHO-cyCD39) [3]: bound

Source: patent US12202907B2, “Nucleic acids encoding and methods of producing proteins comprising antibody chains” (Innate Pharma, priority 2018, dated 2025)
